Results: article PMC9927002 (Frontiers in Immunology, 2023)

B1: N3 (antibody, V domains shown)
VH: QMQLVQSGAEVKRPGSSVKVSCKASGGTFSVYAISWVRQAPGQGLEWMGGIIPIFGTANYAQKFQGRVTLTADESTSTAYMELSSLSSEDTAVYYCARGGYCSGANCPKWGEWSHSYNYMDVWGKGTTVTVSS
VL: not shown
notes: also called N3 hmAb
B2: N31 (antibody, V domains shown)
VH: QMQLVQSGAEVKKPGSSVKVSCKASGGTFSSYGISWVRQAPGQGLEWMGGIIPILGTANYAQRFQGRIALTADESTSTAYMEVSSLRSEDTAVYYCARGMWSNPPGYCCSYMDVWGKGTTVTVSS
VL: EIVLTQSPATLSVSPGERVTLACRASQSLRSKLAWYQQKPGQAPRLLIYDASTRATGFPARFSGSGSGTEFTLTISSLQSEDFAVYYCQQYSNWPRTFGQGTKLEIK
notes: also called N31 hmAb
B3: 3B7 (antibody, V domains shown)
VH: QMQLVQSGAEVKKPGASVRVSCKVSGYSLTELPMHWVRQAPGKGLEWVGSFDPQDAETTYAQRFQGRVAMTEDTSTDTAYMELSSLRSEDTAVYYCATPAPTIVGVVIYALHIWGQGTMVTVSS
VL: EIVLTQSPGTLSLSPGERATLSCRASQRVSDNSLAWYQQKPGQAPSLLIFAASIRAPGIPDRISGTGSGTDFTLTINRLEPEDFVVYFCLQYTTSPPLTFGGGTKLEIK
notes: also called 3B7 hmAb
B4: N5 (antibody, V domains shown)
VH: QVQLVQSGAEVKKPGSSVKVSCKASGGTFSSYAIGWVRQAPGQGLEWMGAIIPIFGTTIFAQKFQGRVTITADESTTTAYMELSSLRSDDTAVYYCARGGGGVERGVILTRWFDPWGQGTLVTVSS
VL: QSVLTQPPSVSAAPGQKVTLSCSGSSSNIGNNHVSWYQQLPGTAPKLLIYDNNKRPSGIPDRFSGSKSGTSATLGITGLQTGDEADYYCGTWDNSLSAGVFGGGTKLTVV
notes: also called N5 hmAb
B5: N83 (antibody, V domains shown)
VH: QVQLQESGPRLVKSSETLSLTCTVSGGSISSGSYYWNWIRQPAGKGLEWIGRVYISGVTSYNPSLKSRVTISLDISKNQFSLQLTSVTAADSAVYYCARGGMAVGAPLYYYFYGMDVWGQGTTVTVSS
VL: DVVMTQSPLSLPVTPGEPASISCRSSQSLLHSNGYNYVDWYLQKPGQSPQLMIYLGSNRASGVPDRFSGSGSGTHFTLKISRVEAEDVGVYYCMQALQTLSITFGQGTRLEIK
notes: also called N83 hmAb

molecular target: T1, full-length SARS-CoV-2 nucleocapsid (N) protein (SARS-CoV-2, NC_045512.2 (Wuhan-Hu-1), UniProt P0DTC9); test: BLI; settings: one partner purified
T1 construct: also called SARS-CoV-2 N protein; SARS-CoV-2 N/D7-Tag; not shown: D7-tag, C-terminal, kept

Question: For B1, which Kd is on record?
Answer: < 0.001 nM

Question: What about the koff of the same binder?
Answer: < 1e-07 s⁻¹

Question: What about the kon of the same binder?
Answer: 157000 M⁻¹ s⁻¹

Question: Which Kd does the source give for B2 here?
Answer: < 0.001 nM

Question: And the koff?
Answer: < 1e-07 s⁻¹

Question: What about the kon of the same binder?
Answer: 174000 M⁻¹ s⁻¹

Question: With B3 as the binder, how does the Kd read?
Answer: 1.94 nM

Question: And the koff?
Answer: 0.000689 s⁻¹

Question: And the kon?
Answer: 355000 M⁻¹ s⁻¹

Question: Which Kd does the source give for B4 here?
Answer: < 0.001 nM

Question: What about the koff of the same binder?
Answer: < 1e-07 s⁻¹

Question: And the kon?
Answer: 137000 M⁻¹ s⁻¹

Question: Which results are given for B5?
Answer: Kd: 1.76 nM; koff: 0.00113 s⁻¹; kon: 639000 M⁻¹ s⁻¹

molecular target: T2, full-length N protein of HKU1 (HCoV-HKU1 isolate N1, NC_006577.2, UniProt Q5MQC6); test: ELISA; settings: one partner purified
T2 construct: also called HKU1 N; source: 293T cells, transfected (pcDNA3.1), in culture supernatant; not shown: D7-tag, C-terminal, kept

Question: Does B1 bind?
Answer: no binding (tested: 10 µg/ml)

Question: Does B2 bind?
Answer: no binding (tested: 10 µg/ml)

Question: Does B3 bind?
Answer: no binding (tested: 10 µg/ml)

Question: Does B4 bind?
Answer: no binding (tested: 10 µg/ml)

Question: Does B5 bind?
Answer: no binding (tested: 10 µg/ml)

molecular target: T3, full-length N protein of SARS-CoV (SARS-CoV, NC_004718.3 (Tor2), UniProt P59595); test: ELISA; settings: one partner purified
T3 construct: also called SARS-CoV N; source: 293T cells, transfected (pcDNA3.1), in culture supernatant; not shown: D7-tag, C-terminal, kept

Question: Does B1 bind?
Answer: binds

Question: Does B2 bind?
Answer: binds

Question: Does B3 bind?
Answer: binds

Question: Does B4 bind?
Answer: binds

Question: Does B5 bind?
Answer: binds
